We go through one molecule from US20250051731A1, “COMPOSITIONS AND METHODS FOR ESTABLISHMENT OF BOVINE-INDUCED PLURIPOTENT STEM CELLS” (University of Connecticut, priority 2021, published 2025).

In one assay the test system is H3K9me2. The assay is described as follows: Immunostaining of H3K9me2 in bMSCs. The format is cell-based, bovine. To be noted: bMSCs overexpressing human KDM4A vs vector control. As for the experimental part: (§1) Immunostaining: For immunofluorescence, the cells were first fixed in 4% PFA for 15 min at room temperature. Following fixation, the cells were treated with 0.5% Triton X-100 in PBS for 15 min at room temperature for cell membrane permeabilization. After blocking with goat serum (Cell Signaling Technology, Danvers, MA, USA), the cells were incubated in goat serum containing primary antibodies for 2 h at 37° C., followed by secondary antibodies at room temperature for 1 h. Cells were counter-stained with DAPI and imaged under a Nikon fluorescence microscope. Primary antibodies including rabbit anti-OCT4 (Santa Cruz, CA, USA), rabbit anti-SOX2 (Merck Millipore), and mouse anti-NANOG (Merck Millipore) were used at 1:100 dilution while mouse anti-AFP (1:50; Cloud-clone Corp., TX, USA), rabbit anti-TUJ1 (1:500) and mouse anti-SMA (1:400) (Thermo Fisher Scientific) were diluted variously according to their manufacturer's instructions. Alexa Fluor 488 or 594 conjugated goat anti-rabbit or goat anti-mouse secondary antibody (Cell Signaling Technology) were used in 1:1000 dilution. For cell surface marker staining, the cells in different reprogramming conditions were stained with NL557-conjugated TRA-1-60 (1:100), SSEA-3 (1:50; R&D Systems, Minneapolis, MN, USA) and Alexa Fluor 594 conjugated SSEA-4 (1:100; BioLegend, San Diego, CA, USA) according to the manufacturer's protocol.

In another assay the test system is H3K9me3. The assay is described as follows: Immunostaining of H3K9me3 in bMSCs. The class given is cell-based, bovine. The conditions noted are these: bMSCs overexpressing human KDM4A vs retroviral vector control. How it is done:
as §1

B1: KDM4A: human lysine-specific demethylase 4A overexpressed in bMSCs from pMXs retroviral vector (protein, UniProt O75164 2-1064, looked up)
Lysine-specific demethylase 4A: ASESETLNPSARIMTFYPTMEEFRNFSRYIAYIESQGAHRAGLAKVVPPKEWKPRASYDDIDDLVIPAPIQQLVTGQSGLFTQYNIQKKAMTVREFRKIANSDKYCTPRYSEFEELERKYWKNLTFNPPIYGADVNGTLYEKHVDEWNIGRLRTILDLVEKESGITIEGVNTPYLYFGMWKTSFAWHTEDMDLYSINYLHFGEPKSWYSVPPEHGKRLERLAKGFFPGSAQSCEAFLRHKMTLISPLMLKKYGIPFDKVTQEAGEFMITFPYGYHAGFNHGFNCAESTNFATRRWIEYGKQAVLCSCRKDMVKISMDVFVRKFQPERYKLWKAGKDNTVIDHTLPTPEAAEFLKESELPPRAGNEEECPEEDMEGVEDGEEGDLKTSLAKHRIGTKRHRVCLEIPQEVSQSELFPKEDLSSEQYEMTECPAALAPVRPTHSSVRQVEDGLTFPDYSDSTEVKFEELKNVKLEEEDEEEEQAAAALDLSVNPASVGGRLVFSGSKKKSSSSLGSGSSRDSISSDSETSEPLSCRAQGQTGVLTVHSYAKGDGRVTVGEPCTRKKGSAARSFSERELAEVADEYMFSLEENKKSKGRRQPLSKLPRHHPLVLQECVSDDETSEQLTPEEEAEETEAWAKPLSQLWQNRPPNFEAEKEFNETMAQQAPHCAVCMIFQTYHQVEFGGFNQNCGNASDLAPQKQRTKPLIPEMCFTSTGCSTDINLSTPYLEEDGTSILVSCKKCSVRVHASCYGVPPAKASEDWMCSRCSANALEEDCCLCSLRGGALQRANDDRWVHVSCAVAILEARFVNIAERSPVDVSKIPLPRFKLKCIFCKKRRKRTAGCCVQCSHGRCPTAFHVSCAQAAGVMMQPDDWPFVVFITCFRHKIPNLERAKGALQSITAGQKVISKHKNGRFYQCEVVRLTTETFYEVNFDDGSFSDNLYPEDIVSQDCLQFGPPAEGEVVQVRWTDGQVYGAKFVASHPIQMYQVEFEDGSQLVVKRDDVYTLDEELPKRVKSRLSVASDMRFNEIFTEKEVKQEKKRQRVINSRYREDYIEPALYRAIME
For the molecule B1, the H3K9me2 by immunostaining entry with H3K9me2 is reported as “not”. Besides, in the assay on H3K9me3, the H3K9me3 by immunostaining result is reported as “reduced”.
